# From article PMC9177983
# Target: reconstituted elongation complex (EC): His-tagged E. coli RNAP core complex on template DNA, non-template DNA and RNA transcript (E. coli)
# NusG, sequence (P0AFG0 whole entry): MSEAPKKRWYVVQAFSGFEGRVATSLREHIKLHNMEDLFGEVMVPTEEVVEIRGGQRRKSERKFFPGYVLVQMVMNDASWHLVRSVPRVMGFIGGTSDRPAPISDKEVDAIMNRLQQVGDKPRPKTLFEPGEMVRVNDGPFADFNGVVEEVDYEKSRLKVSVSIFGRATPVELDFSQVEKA
substance,measurement,value
NusG (from UniProt P0AFG0 1-181) (natural protein),"smFRET of surface-immobilised ECs with 500 nM NusG, no nucleotide: percentage of dynamic ECs in the high-mid and high-low FRET regimes (23% for EC alone)",33%
